Test results published in patent US20130058934A1 (Novartis, published 2013).
Where a chain is given by its changes, count along the chain named.

Tests used:
[1] = target: T1, human LRP6 (human, UniProt O75581 20-1613); experiment: cell-based or functional assay
[2] = target: T2, LRP6 PD3/4 (human, UniProt O75581 631-1246); experiment: Biacore T-100 SPR, antibody captured by anti-human IgG Fc on a CM4 chip, PD3/4 injected; N = 4
T2 construct: range 631-1246; Recombinant soluble fragment; also called Propeller Domains 3-4 of LRP6; recombinant LRP6 PD3/4
T2 sequence (looked up): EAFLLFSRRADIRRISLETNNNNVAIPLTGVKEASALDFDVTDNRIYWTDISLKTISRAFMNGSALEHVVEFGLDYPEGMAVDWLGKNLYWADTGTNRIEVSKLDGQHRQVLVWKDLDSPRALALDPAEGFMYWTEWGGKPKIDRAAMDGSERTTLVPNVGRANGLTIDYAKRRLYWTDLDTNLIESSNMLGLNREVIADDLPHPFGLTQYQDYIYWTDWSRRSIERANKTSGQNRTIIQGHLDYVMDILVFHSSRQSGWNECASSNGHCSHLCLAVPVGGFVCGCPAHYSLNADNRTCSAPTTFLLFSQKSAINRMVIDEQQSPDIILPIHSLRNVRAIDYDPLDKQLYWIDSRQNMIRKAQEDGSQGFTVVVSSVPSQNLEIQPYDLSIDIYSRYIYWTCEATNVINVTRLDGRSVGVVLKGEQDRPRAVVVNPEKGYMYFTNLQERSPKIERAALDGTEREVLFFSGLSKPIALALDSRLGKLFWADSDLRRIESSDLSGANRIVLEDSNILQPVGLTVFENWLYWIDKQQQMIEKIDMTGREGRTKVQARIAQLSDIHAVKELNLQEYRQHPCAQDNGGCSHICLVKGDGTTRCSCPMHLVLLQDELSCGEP
Protocol: The carboxymethyl dextran surface was activated with a 7 min injection of a 1:1 ratio of 0.4 M EDC (1-Ethyl-3-[3-dimethylaminopropyl]carbodiimide hydrochloride) and 0.1 M NHS(N-hydroxysuccinimide). […] PD1/2 and PD3/4 were prepared as two fold concentration series starting at 50 nM, and injected at 30 μl/min for 1 min. […] The surfaces were then regenerated two times with 10 mM glycine (pH 2.2). […] PD3/4 at a saturating concentration of 100 nM was then flowed over the surface at a flow rate of 30 μl/min for 30 min. A saturating concentration of 100 nM PD1/2 was injected immediately after the PD3/4. The dissociation constant (KD), association (kₒₙ), and dissociation (koff) rates were calculated from the baseline subtracted corrected binding curves using the BIAevaluation software (GE Healthcare).

[3] = target: T3, mouse LRP6 (mouse, UniProt O88572 20-1613); experiment: FACS on NIH 3T3 cells, endogenous mouse LRP6
T3 construct: whole, on cells; also called murine LRP6; endogenous LRP6 on NIH 3T3 cells
T3 sequence (O88572 20-1613): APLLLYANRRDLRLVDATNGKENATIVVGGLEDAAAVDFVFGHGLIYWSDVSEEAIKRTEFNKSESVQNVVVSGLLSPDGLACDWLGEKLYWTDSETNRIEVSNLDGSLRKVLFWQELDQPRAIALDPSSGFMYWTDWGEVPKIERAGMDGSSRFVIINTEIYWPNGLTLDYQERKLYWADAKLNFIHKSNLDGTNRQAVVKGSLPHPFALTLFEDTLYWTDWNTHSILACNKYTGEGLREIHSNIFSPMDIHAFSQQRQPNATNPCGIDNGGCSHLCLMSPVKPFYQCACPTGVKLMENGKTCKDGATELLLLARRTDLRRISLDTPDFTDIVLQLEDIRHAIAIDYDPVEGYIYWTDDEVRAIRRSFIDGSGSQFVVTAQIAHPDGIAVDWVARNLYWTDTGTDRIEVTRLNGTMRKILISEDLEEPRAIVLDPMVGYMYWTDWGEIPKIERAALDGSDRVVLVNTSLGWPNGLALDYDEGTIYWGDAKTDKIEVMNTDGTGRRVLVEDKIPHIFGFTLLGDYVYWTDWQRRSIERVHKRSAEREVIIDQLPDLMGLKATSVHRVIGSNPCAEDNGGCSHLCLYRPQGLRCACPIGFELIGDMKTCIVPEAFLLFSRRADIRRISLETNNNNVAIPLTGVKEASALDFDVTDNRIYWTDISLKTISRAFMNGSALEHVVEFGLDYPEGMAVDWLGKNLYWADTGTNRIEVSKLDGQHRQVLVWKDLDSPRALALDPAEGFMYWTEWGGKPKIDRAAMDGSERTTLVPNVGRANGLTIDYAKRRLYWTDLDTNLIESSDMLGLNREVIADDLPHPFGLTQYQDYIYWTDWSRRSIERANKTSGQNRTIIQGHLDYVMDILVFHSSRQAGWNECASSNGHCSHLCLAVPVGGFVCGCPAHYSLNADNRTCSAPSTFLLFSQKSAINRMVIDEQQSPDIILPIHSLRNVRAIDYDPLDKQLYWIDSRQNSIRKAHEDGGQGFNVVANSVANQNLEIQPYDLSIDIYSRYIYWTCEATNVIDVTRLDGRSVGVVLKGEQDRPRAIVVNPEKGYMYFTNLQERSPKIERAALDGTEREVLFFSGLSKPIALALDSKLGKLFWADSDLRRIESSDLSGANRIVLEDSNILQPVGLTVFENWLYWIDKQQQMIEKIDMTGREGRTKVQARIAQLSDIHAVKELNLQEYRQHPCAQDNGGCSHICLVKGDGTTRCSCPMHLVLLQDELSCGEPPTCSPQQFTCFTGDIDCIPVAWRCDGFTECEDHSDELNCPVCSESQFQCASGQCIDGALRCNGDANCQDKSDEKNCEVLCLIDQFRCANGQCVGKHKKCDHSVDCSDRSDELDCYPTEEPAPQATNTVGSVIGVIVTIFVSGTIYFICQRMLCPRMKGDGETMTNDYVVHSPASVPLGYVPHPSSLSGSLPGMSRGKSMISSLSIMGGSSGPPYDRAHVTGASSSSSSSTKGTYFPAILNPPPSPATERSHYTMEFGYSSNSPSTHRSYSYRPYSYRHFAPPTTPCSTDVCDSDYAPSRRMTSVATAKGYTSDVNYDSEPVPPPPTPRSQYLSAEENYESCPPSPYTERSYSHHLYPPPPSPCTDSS
Protocol: (§1) Cross-species reactivity to murine and cynomologus LRP6 was determined on cells by FACS analysis. FACS staining was performed essentially as described above. Human U266 cells (no expression of LRP6) were used as a negative control.
(§2) To show cross-reactivity, cells expressing endogenous LRP6 of human (HEK293T/17) and mouse origin (NIH 3T3), or transiently transfected HEK293/T17 cells expressing cynomolgus LRP6, were treated and subjected to flow cytometry as described above.

[4] = target: T1, human LRP6; experiment: FACS on HEK293T/17 cells, endogenous human LRP6
Protocol: as §1, §2

[5] = target: T4, LRP6-Fc (R&D Systems, catalog No: 1505-LR) (human, UniProt O75581 20-1370); experiment: ELISA on coated LRP6-Fc, detection with pentaHis-HRP
T4 construct: Purchased reagent; also called LRP6 protein; 360 KD homodimer antigen LRP6-Fc; not shown: Fc part of the purchased fusion
T4 sequence (looked up): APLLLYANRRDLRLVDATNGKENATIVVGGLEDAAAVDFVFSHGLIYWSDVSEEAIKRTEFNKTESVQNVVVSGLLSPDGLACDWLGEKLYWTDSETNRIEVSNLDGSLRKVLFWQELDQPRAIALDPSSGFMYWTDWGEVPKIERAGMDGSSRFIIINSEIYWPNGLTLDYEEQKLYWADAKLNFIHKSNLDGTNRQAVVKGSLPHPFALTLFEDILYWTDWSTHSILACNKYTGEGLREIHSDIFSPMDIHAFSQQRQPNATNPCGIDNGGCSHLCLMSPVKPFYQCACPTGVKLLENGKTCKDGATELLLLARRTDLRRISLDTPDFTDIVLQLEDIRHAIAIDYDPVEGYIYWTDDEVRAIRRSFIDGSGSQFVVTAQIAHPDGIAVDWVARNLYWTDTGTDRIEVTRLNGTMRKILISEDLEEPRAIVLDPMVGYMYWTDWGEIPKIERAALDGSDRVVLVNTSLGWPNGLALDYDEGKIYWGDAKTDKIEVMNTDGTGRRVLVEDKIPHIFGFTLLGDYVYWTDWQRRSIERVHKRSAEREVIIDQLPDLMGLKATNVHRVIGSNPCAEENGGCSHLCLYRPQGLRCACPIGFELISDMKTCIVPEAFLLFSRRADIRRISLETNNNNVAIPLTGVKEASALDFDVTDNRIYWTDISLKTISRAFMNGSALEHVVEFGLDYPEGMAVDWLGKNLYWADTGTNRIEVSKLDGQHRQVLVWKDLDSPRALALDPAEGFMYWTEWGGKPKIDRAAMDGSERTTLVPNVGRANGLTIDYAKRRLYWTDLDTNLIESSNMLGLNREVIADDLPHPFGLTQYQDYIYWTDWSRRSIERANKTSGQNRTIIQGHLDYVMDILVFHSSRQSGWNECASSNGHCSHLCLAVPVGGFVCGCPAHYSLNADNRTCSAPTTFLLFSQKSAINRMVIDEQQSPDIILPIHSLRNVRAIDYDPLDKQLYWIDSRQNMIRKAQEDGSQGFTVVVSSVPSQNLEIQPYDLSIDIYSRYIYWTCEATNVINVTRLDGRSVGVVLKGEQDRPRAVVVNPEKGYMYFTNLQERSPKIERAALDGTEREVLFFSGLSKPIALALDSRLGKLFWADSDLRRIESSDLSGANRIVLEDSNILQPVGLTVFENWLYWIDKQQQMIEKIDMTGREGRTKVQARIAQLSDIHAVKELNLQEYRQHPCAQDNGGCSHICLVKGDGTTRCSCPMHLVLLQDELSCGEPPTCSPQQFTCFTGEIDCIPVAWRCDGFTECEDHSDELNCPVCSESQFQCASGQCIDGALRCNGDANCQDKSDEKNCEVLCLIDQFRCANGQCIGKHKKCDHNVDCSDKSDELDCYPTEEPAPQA
Protocol: Binding EC₅₀ of scFvs against LRP6 protein was measured by ELISA. Maxisorp plate was coated with LRP6-Fc (R&D Systems, catalog No: 1505-LR) at 3 μg/ml at 4° C. overnight. The plate was blocked with 50 μl of 2% BSA for one hour, and washed five times with the wash solution. The samples were diluted with 1% BSA accordingly. The plate was incubated at RT for 1 h, and washed for 3 times. Detection was done by adding 50 μl pentaHis-HRP (Qiagen Mat. No. 1014992) at 1:2000 dilution in 1% BSA, incubated at RT for 1 h, and washed 3 times. 50 μl of substrate reagent A plus B (R&D systems) was added, then incubated for 5-20 min depending on the color. The reaction was stopped by adding 25 μl of the stop solution, followed by plate reading at 450 nm.
Affinity analysis ELISA EC₅₀ was carried out for both scFv08168 and scFv06475 wild type and variants.

B1: scFv08168-D4 (scFv, not shown: small tags and cut ends)
scFv: QVQLVESGGGLVQPGGSLRLSCAASGFTFSDYVMNWVRQAPGKGLEWVSSISWSGVNTHYADSVKGRFTISRDNSKNTLYLQMNSLRAEDTAVYYCARLGATANNIRYKFMDVWGQGTLVTVSSGGGGSGGGGSGGGGSDIELTQPPSVSVAPGQTARISCSGDSLRNKVYWYQQKPGQAPVLVIYKNNRPSGIPERFSGSNSGNTATLTISGTQAEDEADYYCQSYDGQKSLVFGGGTKLTVL
IC50 by STF assay for Wnt1 inhibition [1]: 5.56 nM

B2: scFv08168-D2 (scFv, not shown: small tags and cut ends)
scFv: B1 scFv with M34F, S49A, S50G
IC50 by STF assay for Wnt1 inhibition [1]: 2.59 nM

B3: scFv MOR06475 (scFv, V domains shown)
VH: QVQLKESGPALVKPTQTLTLTCTFSGFSLSNRGGGVGWIRQPPGKALEWLAWIDWDDDKSYSTSLKTRLTISKDTSKNQVVLTMTNMDPVDTATYYCARMHLPLVFDSWGQGTLVTVSS
VL: DIVLTQSPATLSLSPGERATLSCRASQFIGSRYLAWYQQKPGQAPRLLIYGASNRATGVPARFSGSGSGTDFTLTISSLEPEDFATYYCQQYYDYPQTFGQGTKVEIK
IC50 by STF assay for Wnt3a inhibition [1]: 1.48 nM

B4: MOR06475 IgG (antibody, V domains shown)
VH: B3 VH
VL: DIVLTQSPATLSLSPGERATLSCRASQFIGSRYLAWYQQKPGQAPRLLIYGASNRATGVPARFSGSGSGTDFTLTISSLEPEDFATYYCQQYYDYPQTFGQGTKVEIKR
notes: also called MOR6475; MOR6475 (propeller 3 antibody)
Kd [2]: 1.13 nM | koff [2]: 0.000217 s⁻¹ | kon [2]: 201000 M⁻¹ s⁻¹

B5: MOR08193 Fab (Fab, V domains shown)
VH: B3 VH
VL: B4 VL with T86V, Y93W, D94S, Y95I, Q97I
notes: also called Propeller 3 anti-LRP6 Fab MOR08193
EC50 [3]: 0.08 nM | EC50 [4]: 0.36 nM

B6: MOR06706 Fab (Fab, V domains shown)
VH: QVQLVESGGGLVQPGGSLRLSCAASGFTFSDYAIHWVRQAPGKGLEWVSGISYSGSSTHYADSVKGRFTISRDNSKNTLYLQMNSLRAEDTAVYYCARGSHGNIMAKRYFDFWGQGTLVTVSS
VL: DIELTQPPSVSVAPGQTARISCSGDNIRKKYVYWYQQKPGQAPVLVIYEDSKRPSGIPERFSGSNSGNTATLTISGTQAEDEADYYCSTADSGINNGVFGGGTKLTVL
notes: also called Propeller 1 anti-LRP6 Fab MOR06706
EC50 [4]: 0.14 nM

B7: MOR08545 Fab (Fab, V domains shown)
VH: QVQLVESGGGLVQPGGSLRLSCAASGFTFSVNGMHWVRQAPGKGLEWVSVIDGMGHTYYADSVKGRFTISRDNSKNTLYLQMNSLRAEDTAVYYCARYDYIKYGAFDPWGQGTLVTVSS
VL: DIELTQPPSVSVAPGQTARISCSGDNIGSKYVHWYQQKPGQAPVLVIYGDSNRPSGIPERFSGSNSGNTATLTISGTQAEDEADYYCTRTSTPISGVFGGGTKLTVLG
notes: also called Propeller 1 anti-LRP6 Fab MOR08545
EC50 [3]: 0.06 nM | EC50 [4]: 0.09 nM

B8: scFv08168 VH:I34M (scFv, V domains shown)
VH: QVQLVESGGGLVQPGGSLRLSCAASGFTFSDYVMNWVRQAPGKGLEWVSGISWSGVNTHYADSVKGRFTISRDNSKNTLYLQMNSLRAEDTAVYYCARLGATANNIRYKFMDVWGQGTLVTVSS
VL: DIELTQPPSVSVAPGQTARISCSGDSLRNKVYWYQQKPGQAPVLVIYKNNRPSGIPERFSGSNSGNTATLTISGTQAEDEADYYCQSYDGQKSLVFGGGTKLTVL
notes: Point mutant of scFv08168 (His tag)
EC50 [5]: 0.98 nM

B9: MOR08168 Fab (Fab, V domains shown)
VH: B8 VH with M34I
VL: B8 VL
notes: HuCAL Fab expressed in E. coli from pMORPH X9/X11 FH vectors and purified by Ni-NTA; also called Propeller 1 anti-LRP6 Fab MOR08168
EC50 [3]: 0.12 nM | EC50 [4]: 0.28 nM

B10: MOR08473 Fab (Fab, V domains shown)
VH: QVQLVESGGGLVQPGGSLRLSCAASGFTFSSYGMSWVRQAPGKGLEWVSNISNDGHYTYYADSVKGRFTISRDNSKNTLYLQMNSLRAEDTAVYYCARFQASYLDIMDYWGQGTLVTVSS
VL: DIELTQPPSVSVAPGQSITISCSGDNIGSKYVHWYQQKPGQAPVLVIYNDSNRPSGIPERFSGSNSGNTATLTISGTQAEDEADYYCQAWGDNGTRVFGGGTKLTVLG
notes: also called Propeller 3 anti-LRP6 Fab MOR08473
EC50 [3]: 0.46 nM | EC50 [4]: 0.74 nM
